Target: the molecule itself
Experiment: SEC

B1: Py-DmBLM (Drosophila Bloom's syndrome helicase homolog with an N-terminal polyoma epitope tag) (enzyme)
chain: not shown
stoichiometry N: ~7

Source: publication PMC1849897 (Nucleic Acids Research, 2007)
